From publication PMC12519199, “Molecular basis of SARS-CoV-2 proofreading enzyme–mediated resistance to remdesivir”

Biological target: nsp12 (RdRp catalytic subunit);nsp7;nsp8 (SARS-CoV-2;SARS-CoV-2;SARS-CoV-2, UniProt P0DTD1;P0DTD1;P0DTD1 4393-5324;3860-3942;3943-4140, ||)
Experiment: fluorescence polarization; higher affinity than T20P14-R
Settings: protein: recombinant;recombinant;recombinant; tags: His6-Smt3 removed by Ulp1;His6-Smt3 removed by Ulp1;His6-Smt3 removed by Ulp1; copies: 1;1;2; label: 5'-FAM (FP); hairpin, UUCG loop, 5' overhang 5 nt

## GGGAAUGGGAUUUUAAUAGCUUCGGCUAUUAAAAUCCCA (structured_RNA) [T20P14-A]
  binding result: binds
